The values that follow come from paper PMC10312132.

Common to all, as to experiment: EMSA
A general note: A gel shift assay detects complexes by their altered migration in electrophoresis.

Series [1] addresses T1, RAD52 full-length (Homo sapiens, UniProt P43351 1-418).
T1 sequence: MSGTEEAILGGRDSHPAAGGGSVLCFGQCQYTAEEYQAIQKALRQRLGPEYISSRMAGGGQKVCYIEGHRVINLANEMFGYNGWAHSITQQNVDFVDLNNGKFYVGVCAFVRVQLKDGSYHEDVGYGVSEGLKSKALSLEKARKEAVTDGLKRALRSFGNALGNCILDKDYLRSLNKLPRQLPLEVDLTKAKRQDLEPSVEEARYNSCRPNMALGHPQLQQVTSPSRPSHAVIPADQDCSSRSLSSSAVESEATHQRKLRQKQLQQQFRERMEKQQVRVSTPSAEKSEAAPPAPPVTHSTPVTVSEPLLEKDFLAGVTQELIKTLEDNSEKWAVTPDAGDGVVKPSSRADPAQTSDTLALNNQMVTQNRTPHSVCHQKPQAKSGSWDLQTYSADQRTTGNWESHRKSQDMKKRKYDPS

Series [2] has as its target T1, RAD52 full-length. The source holds these as a separate data set.
Series [3] addresses T1, RAD52 full-length. The source holds these as a separate data set.
In series [4] the target is T1, RAD52 full-length. The source holds these as a separate data set.

Where two headings read alike, the source gives them in different places.

B1: ISE#1 40-mer ssDNA (ssDNA)
DNA: ACAGCACCAGATTCAGCAATTAAGCTCTAAGCCATCCGCA
For B1, in the series with RAD52 full-length [1], the binding result is reported as “binds”.

B2: ISE#3 40-mer ssRNA (ssRNA)
RNA: UGCGGAUGGCUUAGAGCUUAAUUGCUGAAUCUGGUGCUGU
Consider B2, for which the binding result in the series with RAD52 full-length [2] is given as “binds”.

B3: ISE#4 40-mer ssDNA (ssDNA)
DNA: TGCGGATGGCTTAGAGCTTAATTGCTGAATCTGGTGCTGT
Take B3: the binding result in the series with RAD52 full-length [3] is listed as “binds”.

B4: CA#1 40-mer ssRNA (ssRNA)
RNA: AAUACCGCAUCAGGAAAUUGUAAGCGUUAAUAUUUUGUUA
In the case of B4, the binding result with RAD52 full-length [4] is “binds”.
